Assay: Feed conversion efficiency in pigs after sub-cutaneous implantation of rPST compressed tablets, 0-7 days
Assay type: in vivo
Settings: 0-7 days (Table 6)
From the text: A number of the compressed tablets were implanted via sub-cutaneous injection in pigs.

B1: PST Injection A: daily injection of porcine somatotropin, 5 mg/day, comparator (source A) (protein, UniProt P01248 27-216, looked up)
Somatotropin: FPAMPLSSLFANAVLRAQHLHQLAADTYKEFERAYIPEGQRYSIQNAQAAFCFSETIPAPTGKDEAQQRSDVELLRFSLLLIQSWLGPVQFLSRVFTNSLVFGTSDRVYEKLKDLEEGIQALMRELEDGSPRAGQILKQTYDKFDTNLRSDDALLKNYGLLSCFKKDLHKAETYLRVMKCRRFVESSCAF
  FCR: 1.97
  Feed intake: 16.33 kgs
  Weight increase: 8.30 kgs

B2: PST Injection M: daily injection of porcine somatotropin, 5 mg/day, comparator (source M) (protein, UniProt P01248 27-216, looked up)
Somatotropin: FPAMPLSSLFANAVLRAQHLHQLAADTYKEFERAYIPEGQRYSIQNAQAAFCFSETIPAPTGKDEAQQRSDVELLRFSLLLIQSWLGPVQFLSRVFTNSLVFGTSDRVYEKLKDLEEGIQALMRELEDGSPRAGQILKQTYDKFDTNLRSDDALLKNYGLLSCFKKDLHKAETYLRVMKCRRFVESSCAF
  FCR: 1.78
  Feed intake: 16.78 kgs
  Weight increase: 9.43 kgs

Source: US8197839B2, “Sustained release delivery system” (Virbac Corporation, priority 2001, dated 2012)
